Ten molecules from patent US20250346634A1, “CYCLIC PEPTIDES FOR TARGETING EPIDERMAL GROWTH FACTOR RECEPTOR AND MUTATIONS THEREOF FOR DRUG DELIVERY” (priority 2022, published 2025) can be followed below.

Bridge positions count the residues as written; N and C are the ends. Peptide text beside a SMILES is read from it. * marks the point of attachment. FITC = O=C1OC2(c3ccc(O)cc3Oc3cc(O)ccc32)c2ccc(NC(=S)*)cc21; GABA = NCCCC(=O)O

One data set has as its system H1299 cells. Put plainly: XTT cytotoxicity assay on H1299 cells. It is filed as cell-based. To be noted: for IC50: H1299. The procedure: (§1) Cell growth in the presence of PDCs was measured by a commercial XTT assay kit (Cell Proliferation Kit, XTT based; Biological Industries, Israel). The cells (10^4 cells/well) were seeded in 96 well plates and incubated overnight in complete growth medium. The cells were washed and then cultured in 100 μl of new medium containing various concentrations of drug or peptides, for 24 h, 48 h, and 72 h. The XTT solution was added to each well and the plate was further incubated 2-3 h at 37° C. The optical density in the wells was measured at both 480 nm and 680 nm using a TECAN Infinite M200 ELISA reader. All the tests were done in triplicates, and each experiment was repeated three times.
(§2) The cytotoxicity of the Peptide-Drug conjugates (PDCs) was tested in a range of concentrations (0.5-50 μM) against H1299 and DKMG cells using two protocols. In the first protocol, cells were pre-incubated with P6, P9, P6-CPT, and P9-CPT for 6 hours, the medium was removed, and a fresh, drug-free complete medium was added for additional 24 h (designated as 6h24h) or 48 h (6h48h). In the second protocol, cells were exposed continuously to PDCs for 24 h, 48 h, and 72 hours.
On the technique in general: Formazan colour is commonly taken as a measure of viable cells.

For a further data set, the system named is DKMG cells. Put plainly: XTT cytotoxicity assay on DKMG cells. It is filed as cell-based. The procedure: as §1, §2
The subject of data set [1] is EGFR+ve cells (H1299, DKMG) versus K562 cells. Put plainly: Flow cytometry internalization of peptide-FITC conjugates. It is filed as cell-based. To be noted: 2.5 μM FITC-labeled peptide. The text has this:
Analysis was done with FACS cell analyzer.
(Flow cytometry measures light scatter and fluorescence of single cells or particles in a stream.)

Data set [2] deals with T1, EGFR variant III (EGFRvIII), on DKMG glioblastoma cells (human, UniProt P00533 25-1210).
T1 construct: whole, on cells; DKMG cells express both wild type EGFR (92% of cells) and EGFRvIII (82%); All results on DKMG cells are written against this molecule; also called EGFR mutant; EGFRVIII DKMG
Put plainly: flow cytometry, 2.5 uM FITC-peptide on DKMG cells (EGFR WT and EGFRvIII).

For data set [3], the target named is T2, epidermal growth factor receptor (EGFR), wild type (human, UniProt P00533 25-1210).
T2 construct: whole, on cells; The target is inferred from tumour cell lines that overexpress EGFR, compared with EGFR-negative cells; No purified receptor was used; also called EGFRWT; EGFR WT
Briefly: flow cytometry, 2.5 uM FITC-peptide on H1299 cells (EGFR overexpressing).

For `CC[C@H](C)[C@@H]1NC(=O)[C@H](Cc2ccc(O)cc2)NC(=O)[C@H](CO)NC(=O)CNC(=O)[C@@H]2CCCN2C(=O)[C@H](C(C)C)NC(=O)[C@H](Cc2cnc[nH]2)NC(=O)[C@@H](N)CSSC[C@@H](C(N)=O)NC1=O` [Peptide P6] (H-CHVPGSYIC-NH2; disulfide 1-9), in the data set with H1299 cells, the cytotoxicity entry was “did not demonstrate cytotoxicity”. Further, the IC50 was 27.5 ± 0.8 µM in the data set with H1299 cells (24 h continuous exposure), 32 µM with H1299 cells (48 h continuous exposure) and 28.8 µM in the data set with H1299 cells (72 h continuous exposure).
`CC[C@@]1(O)C(=O)OCc2c1cc1n(c2=O)Cc2cc3ccccc3nc2-1` [CPT, (S)-(+)-camptothecin, reference compound]: the IC50 was 6.7 ± 1.8 µM with H1299 cells (Homo sapiens, NCI-H1299, 6 w 48 h (6 h pre-incubation, then 48 h drug-free medium)); 8.5 ± 1 µM in the data set on DKMG cells (6 w 48 h (6 h pre-incubation, then 48 h drug-free medium)); 25 µM in the data set with DKMG cells (24 h continuous exposure).
Consider `CC(C)[C@@H]1NC(=O)[C@@H](NC(=O)CCCNC(=S)Nc2ccc3c(c2)C(=O)OC32c3ccc(O)cc3Oc3cc(O)ccc32)CSSC[C@@H](C(N)=O)NC(=O)[C@H](CCCNC(=N)N)NC(=O)CNC(=O)[C@H](Cc2ccccc2)NC(=O)[C@H](CCCNC(=N)N)NC(=O)[C@H](Cc2c[nH]c3ccccc23)NC(=O)[C@H](CCCNC(=N)N)NC1=O` [FITC-labeled P3] ({FITC-GABA}-CVRWRFGRC-NH2; disulfide 1-9), for which the “internalization (flow cytometry)” value in data set [1] was “internalized only into to EGFR+ve cells”.

B1: FITC-labeled cyclic peptide P9, c(CVNAMQSYC) (peptide)
peptide: {FITC-GABA}-CVNAMQSYC-NH2
modifications: disulfide 1-9
SMILES: CSCC[C@@H]1NC(=O)[C@H](C)NC(=O)[C@H](CC(N)=O)NC(=O)[C@H](C(C)C)NC(=O)[C@@H](NC(=O)CCCNC(=S)Nc2ccc3c(c2)C(=O)OC32c3ccc(O)cc3Oc3cc(O)ccc32)CSSC[C@@H](C(N)=O)NC(=O)[C@H](Cc2ccc(O)cc2)NC(=O)[C@H](CO)NC(=O)[C@H](CCC(N)=O)NC1=O
notes: also called FITC-P9; FITC-labeled P9
In the case of B1, the binding result in data set [2] and in data set [3] was “binds” in each case.

B2: FITC-labeled cyclic peptide P5, c(CPNDSYHQC) (peptide)
peptide: {FITC-GABA}-CPNDSYHQC-NH2
modifications: disulfide 1-9
SMILES: NC(=O)CC[C@@H]1NC(=O)[C@H](Cc2c[nH]cn2)NC(=O)[C@H](Cc2ccc(O)cc2)NC(=O)[C@H](CO)NC(=O)[C@H](CC(=O)O)NC(=O)[C@H](CC(N)=O)NC(=O)[C@@H]2CCCN2C(=O)[C@@H](NC(=O)CCCNC(=S)Nc2ccc3c(c2)C(=O)OC32c3ccc(O)cc3Oc3cc(O)ccc32)CSSC[C@@H](C(N)=O)NC1=O
notes: also called FITC-labeled P5
As for B2, the binding result in data set [2] and in data set [3] was “binds” throughout.

B3: FITC-labeled cyclic peptide P2, c(CSAETVESC) (peptide)
peptide: {FITC-GABA}-CSAETVESC-NH2
modifications: disulfide 1-9
SMILES: CC(C)[C@@H]1NC(=O)[C@H]([C@@H](C)O)NC(=O)[C@H](CCC(=O)O)NC(=O)[C@H](C)NC(=O)[C@H](CO)NC(=O)[C@@H](NC(=O)CCCNC(=S)Nc2ccc3c(c2)C(=O)OC32c3ccc(O)cc3Oc3cc(O)ccc32)CSSC[C@@H](C(N)=O)NC(=O)[C@H](CO)NC(=O)[C@H](CCC(=O)O)NC1=O
notes: also called FITC-labeled P2
Turning to B3, the binding result in data set [2] and in data set [3] was “binds” in each case.

B4: FITC-labeled cyclic peptide P3, c(CVRWRFGRC) (peptide)
peptide: {FITC-GABA}-CVRWRFGRC-NH2
modifications: disulfide 1-9
SMILES: CC(C)[C@@H]1NC(=O)[C@@H](NC(=O)CCCNC(=S)Nc2ccc3c(c2)C(=O)OC32c3ccc(O)cc3Oc3cc(O)ccc32)CSSC[C@@H](C(N)=O)NC(=O)[C@H](CCCNC(=N)N)NC(=O)CNC(=O)[C@H](Cc2ccccc2)NC(=O)[C@H](CCCNC(=N)N)NC(=O)[C@H](Cc2c[nH]c3ccccc23)NC(=O)[C@H](CCCNC(=N)N)NC1=O
notes: also called FITC-labeled P3
As for B4, the binding result in data set [2] and in data set [3] was “binds” throughout.

B5: FITC-labeled cyclic peptide P4, c(CLAVEVRPC) (peptide)
peptide: {FITC-GABA}-CLAVEVRPC-NH2
modifications: disulfide 1-9
SMILES: CC(C)C[C@@H]1NC(=O)[C@@H](NC(=O)CCCNC(=S)Nc2ccc3c(c2)C(=O)OC32c3ccc(O)cc3Oc3cc(O)ccc32)CSSC[C@@H](C(N)=O)NC(=O)[C@@H]2CCCN2C(=O)[C@H](CCCNC(=N)N)NC(=O)[C@H](C(C)C)NC(=O)[C@H](CCC(=O)O)NC(=O)[C@H](C(C)C)NC(=O)[C@H](C)NC1=O
notes: also called FITC-labeled P4
For the molecule B5, the binding result in data set [2] and in data set [3] was “binds” throughout.

B6: FITC-labeled cyclic peptide P8, c(CSALWASHC) (peptide)
peptide: {FITC-GABA}-CSALWASHC-NH2
modifications: disulfide 1-9
SMILES: CC(C)C[C@@H]1NC(=O)[C@H](C)NC(=O)[C@H](CO)NC(=O)[C@@H](NC(=O)CCCNC(=S)Nc2ccc3c(c2)C(=O)OC32c3ccc(O)cc3Oc3cc(O)ccc32)CSSC[C@@H](C(N)=O)NC(=O)[C@H](Cc2c[nH]cn2)NC(=O)[C@H](CO)NC(=O)[C@H](C)NC(=O)[C@H](Cc2c[nH]c3ccccc23)NC1=O
notes: also called FITC-labeled P8
Consider B6, for which the binding result in data set [2] and in data set [3] was “binds” in each case.

B7: FITC-labeled cyclic peptide P11, c(CAQYTPGRC) (peptide)
peptide: {FITC-GABA}-CAQYTPGRC-NH2
modifications: disulfide 1-9
SMILES: C[C@@H]1NC(=O)[C@@H](NC(=O)CCCNC(=S)Nc2ccc3c(c2)C(=O)OC32c3ccc(O)cc3Oc3cc(O)ccc32)CSSC[C@@H](C(N)=O)NC(=O)[C@H](CCCNC(=N)N)NC(=O)CNC(=O)[C@@H]2CCCN2C(=O)[C@H]([C@@H](C)O)NC(=O)[C@H](Cc2ccc(O)cc2)NC(=O)[C@H](CCC(N)=O)NC1=O
notes: also called FITC-labeled P11
As for B7, the binding result in data set [2] and in data set [3] was “binds” each time.

The IC50 is the concentration that inhibits the measured activity by half. The low end stands for greater potency, the high end for weaker potency.
